Measured values as given in patent publication US20240209106A1 (BEIGENE SWITZERLAND, published 2024).

How the values were obtained:
[1] = target: human CD137 ECD-mIgG2a (human); assay: SPR, multispecific antibody captured on anti-human IgG Fc chip, human CD137 ECD-mIgG2a flowed over
Description: Briefly, anti-human IgG (Fc) antibody was immobilized on an activated CM5 biosensor chip (Cat.: BR100839, GE Life Sciences). Anti-huCD137 monoclonal antibodies or multispecific antibodies were flown through the chip surface and captured by anti-human IgG (Fc) antibody. […] The equilibrium dissociation constant (KD)) was calculated as the ratio koff/kₒₙ.

[2] = target: full-length human CD137 (huCD137) (human, UniProt Q07011 24-255); assay: cell-based or functional assay
Chain of full-length human CD137 (huCD137) (Q07011 24-255 limits assumed): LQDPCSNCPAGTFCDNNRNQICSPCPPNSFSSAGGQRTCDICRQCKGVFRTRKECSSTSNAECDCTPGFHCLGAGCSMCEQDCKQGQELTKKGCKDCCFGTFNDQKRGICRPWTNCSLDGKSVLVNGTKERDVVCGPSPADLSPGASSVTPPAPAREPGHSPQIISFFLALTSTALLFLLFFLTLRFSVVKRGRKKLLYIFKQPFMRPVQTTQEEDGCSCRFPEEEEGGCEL

Chain of human CD137 ECD-mIgG2a (human) (chain, as listed by the source limits assumed): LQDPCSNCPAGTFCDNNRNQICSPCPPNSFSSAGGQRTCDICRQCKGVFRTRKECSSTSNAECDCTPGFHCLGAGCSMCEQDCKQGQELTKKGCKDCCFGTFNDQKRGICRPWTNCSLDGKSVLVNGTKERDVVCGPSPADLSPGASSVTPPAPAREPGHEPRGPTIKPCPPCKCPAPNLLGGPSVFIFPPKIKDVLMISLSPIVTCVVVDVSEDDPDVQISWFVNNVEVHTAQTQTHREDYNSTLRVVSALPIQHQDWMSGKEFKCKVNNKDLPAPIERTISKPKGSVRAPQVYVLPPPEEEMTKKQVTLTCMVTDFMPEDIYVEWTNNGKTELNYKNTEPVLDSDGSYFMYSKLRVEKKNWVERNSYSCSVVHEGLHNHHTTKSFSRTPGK

Kd [1] [nM] | Functional assay EC50 (ug/ml), in vitro CD137 activation (PBMC cytokine release) [2] [µg/mL] | Binder
798 |  | Format A - BGA-3285 (bispecific antibody, human IgG1, kappa, Light chain by the description of Format A) heavy: QVQLVQSGAEVKKPGASVKVSCKASGYIFTSYYLHWVRQAPGQGLEWIGYINPQTGKTSYAQKFQGRVTMTRDTSTSTVYMELSSLRSEDTAVYYCAREYGNYNYPLDYWGQGTLVTVSSASTKGPSVFPLAPSSKSTSGGTAALGCLVKDYFPEPVTVSWNSGALTSGVHTFPAVLQSSGLYSLSSVVTVPSSSLGTQTYICNVNHKPSNTKVDKKVEPKSCDKTHTCPPCPAPPAAGPSVFLFPPKPKDTLMISRTPEVTCVVVDVSHEDPEVKFNWYVDGVEVHNAKTKPREEQYNSTYRVVSVLTVLHQDWLNGKEYKCKVSNKALAAPIEKTISKAKGQPREPQVYTLPPSREEMTKNQVSLTCLVKGFYPSDIAVEWESNGQPENNYKTTPPVLDSDGSFFLYSKLTVDKSRWQQGNVFSCSVMHEALHNHYTQKSLSLSPGKGGGGSEVQLLESGGGLVQPGGSLRLSCAASGFTISAEDVGWVRQAPGKGLEWVSAILDFGGSTYYAESVKGRFTISRDNAKNTLYLQMSSLRAEDTAVYYCARVVYHAGGGVTFDTRGQGTQVTVSS light: DIQMTQSPSSLSASVGDRVTITCRASENQYGYLAWYQQKPGKVPKLLIYNYKNLVEGVPSRFSGSGSGTDFTLTISSLQPEDVATYYCQHHLGTPYTFGQGTKVEIKRTVAAPSVFIFPPSDEQLKSGTASVVCLLNNFYPREAKVQWKVDNALQSGNSQESVTEQDSKDSTYSLSSTLTLSKADYEKHKVYACEVTHQGLSSPVTKSFNRGEC
 | 0.01 | BE-718 (A-BGA-5623-BGA-5623) (bispecific antibody, human IgG1, kappa) heavy: QVQLVQSGAEVKKPGASVKVSCKASGYIFTSYYLHWVRQAPGQGLEWIGYINPQTGKTSYAQKFQGRVTMTRDTSTSTVYMELSSLRSEDTAVYYCAREYGNYNYPLDYWGQGTLVTVSSASTKGPSVFPLAPSSKSTSGGTAALGCLVKDYFPEPVTVSWNSGALTSGVHTFPAVLQSSGLYSLSSVVTVPSSSLGTQTYICNVNHKPSNTKVDKKVEPKSCDKTHTCPPCPAPPAAGPSVFLFPPKPKDTLMISRTPEVTCVVVDVSHEDPEVKFNWYVDGVEVHNAKTKPREEQYNSTYRVVSVLTVLHQDWLNGKEYKCKVSNKALAAPIEKTISKAKGQPREPQVYTLPPSREEMTKNQVSLTCLVKGFYPSDIAVEWESNGQPENNYKTTPPVLDSDGSFFLYSKLTVDKSRWQQGNVFSCSVMHEALHNHYTQKSLSLSPGKGGGGSEVQLLESGGGLVQPGGSLRLSCAASGFTVSAEDVGWVRQAPGKGLEWVSAILDKGGSTYYAESVKGRFTISRDNAKNTLYLQMSSLRAEDTAVYYCARIVYHAGGGVTFDTRGQGTQVTVSSGGGGSEVQLLESGGGLVQPGGSLRLSCAASGFTVSAEDVGWVRQAPGKGLEWVSAILDKGGSTYYAESVKGRFTISRDNAKNTLYLQMSSLRAEDTAVYYCARIVYHAGGGVTFDTRGQGTQVTVSS light: DIQMTQSPSSLSASVGDRVTITCRASENQYGYLAWYQQKPGKVPKLLIYNYKNLVEGVPSRFSGSGSGTDFTLTISSLQPEDVATYYCQHHLGTPYTFGQGTKVEIKRTVAAPSVFIFPPSDEQLKSGTASVVCLLNNFYPREAKVQWKVDNALQSGNSQESVTEQDSKDSTYSLSSTLTLSKADYEKHKVYACEVTHQGLSSPVTKSFNRGEC
 | 0.17 | BE-740 (A-IgG1-BGA-5623) (bispecific antibody) heavy: not shown light: DIQMTQSPSSLSASVGDRVTITCRASENQYGYLAWYQQKPGKVPKLLIYNYKNLVEGVPSRFSGSGSGTDFTLTISSLQPEDVATYYCQHHLGTPYTFGQGTKVEIKRTVAAPSVFIFPPSDEQLKSGTASVVCLLNNFYPREAKVQWKVDNALQSGNSQESVTEQDSKDSTYSLSSTLTLSKADYEKHKVYACEVTHQGLSSPVTKSFNRGEC
245 |  | Format A - BGA-7746 (bispecific antibody, human IgG1, kappa, Light chain by the description of Format A) heavy: QVQLVQSGAEVKKPGASVKVSCKASGYIFTSYYLHWVRQAPGQGLEWIGYINPQTGKTSYAQKFQGRVTMTRDTSTSTVYMELSSLRSEDTAVYYCAREYGNYNYPLDYWGQGTLVTVSSASTKGPSVFPLAPSSKSTSGGTAALGCLVKDYFPEPVTVSWNSGALTSGVHTFPAVLQSSGLYSLSSVVTVPSSSLGTQTYICNVNHKPSNTKVDKKVEPKSCDKTHTCPPCPAPPAAGPSVFLFPPKPKDTLMISRTPEVTCVVVDVSHEDPEVKFNWYVDGVEVHNAKTKPREEQYNSTYRVVSVLTVLHQDWLNGKEYKCKVSNKALAAPIEKTISKAKGQPREPQVYTLPPSREEMTKNQVSLTCLVKGFYPSDIAVEWESNGQPENNYKTTPPVLDSDGSFFLYSKLTVDKSRWQQGNVFSCSVMHEALHNHYTQKSLSLSPGKGGGGSEVQLLESGGGLVQPGGSLRLSCAASGFTVSAEDVGWVRQAPGKGLEWVSAILDFGGSTYYAESVKGRFTISRDNAKNTLYLQMSSLRAEDTAVYYCARVVYHAGGGVTFDTRGQGTQVTVSS light: DIQMTQSPSSLSASVGDRVTITCRASENQYGYLAWYQQKPGKVPKLLIYNYKNLVEGVPSRFSGSGSGTDFTLTISSLQPEDVATYYCQHHLGTPYTFGQGTKVEIKRTVAAPSVFIFPPSDEQLKSGTASVVCLLNNFYPREAKVQWKVDNALQSGNSQESVTEQDSKDSTYSLSSTLTLSKADYEKHKVYACEVTHQGLSSPVTKSFNRGEC
154 |  | Format A - BGA-5385 (bispecific antibody, human IgG1, kappa, Light chain by the description of Format A) heavy: QVQLVQSGAEVKKPGASVKVSCKASGYIFTSYYLHWVRQAPGQGLEWIGYINPQTGKTSYAQKFQGRVTMTRDTSTSTVYMELSSLRSEDTAVYYCAREYGNYNYPLDYWGQGTLVTVSSASTKGPSVFPLAPSSKSTSGGTAALGCLVKDYFPEPVTVSWNSGALTSGVHTFPAVLQSSGLYSLSSVVTVPSSSLGTQTYICNVNHKPSNTKVDKKVEPKSCDKTHTCPPCPAPPAAGPSVFLFPPKPKDTLMISRTPEVTCVVVDVSHEDPEVKFNWYVDGVEVHNAKTKPREEQYNSTYRVVSVLTVLHQDWLNGKEYKCKVSNKALAAPIEKTISKAKGQPREPQVYTLPPSREEMTKNQVSLTCLVKGFYPSDIAVEWESNGQPENNYKTTPPVLDSDGSFFLYSKLTVDKSRWQQGNVFSCSVMHEALHNHYTQKSLSLSPGKGGGGSEVQLLESGGGLVQPGGSLRLSCAASGFTLSAEDVGWVRQAPGKGLEWVSAILDHGGSTYYAESVKGRFTISRDNAKNTLYLQMSSLRAEDTAVYYCARVIYHAGGGVTFDTRGQGTQVTVSS light: DIQMTQSPSSLSASVGDRVTITCRASENQYGYLAWYQQKPGKVPKLLIYNYKNLVEGVPSRFSGSGSGTDFTLTISSLQPEDVATYYCQHHLGTPYTFGQGTKVEIKRTVAAPSVFIFPPSDEQLKSGTASVVCLLNNFYPREAKVQWKVDNALQSGNSQESVTEQDSKDSTYSLSSTLTLSKADYEKHKVYACEVTHQGLSSPVTKSFNRGEC
189 |  | Format A - BGA-8425 (bispecific antibody, human IgG1, kappa, Light chain by the description of Format A) heavy: QVQLVQSGAEVKKPGASVKVSCKASGYIFTSYYLHWVRQAPGQGLEWIGYINPQTGKTSYAQKFQGRVTMTRDTSTSTVYMELSSLRSEDTAVYYCAREYGNYNYPLDYWGQGTLVTVSSASTKGPSVFPLAPSSKSTSGGTAALGCLVKDYFPEPVTVSWNSGALTSGVHTFPAVLQSSGLYSLSSVVTVPSSSLGTQTYICNVNHKPSNTKVDKKVEPKSCDKTHTCPPCPAPPAAGPSVFLFPPKPKDTLMISRTPEVTCVVVDVSHEDPEVKFNWYVDGVEVHNAKTKPREEQYNSTYRVVSVLTVLHQDWLNGKEYKCKVSNKALAAPIEKTISKAKGQPREPQVYTLPPSREEMTKNQVSLTCLVKGFYPSDIAVEWESNGQPENNYKTTPPVLDSDGSFFLYSKLTVDKSRWQQGNVFSCSVMHEALHNHYTQKSLSLSPGKGGGGSEVQLLESGGGLVQPGGSLRLSCAASGFTLSAEDVGWVRQAPGKGLEWVSAILDSGGSTYYAESVKGRFTISRDNAKNTLYLQMSSLRAEDTAVYYCARVVYHAGGGVTYDYRGQGTQVTVSS light: DIQMTQSPSSLSASVGDRVTITCRASENQYGYLAWYQQKPGKVPKLLIYNYKNLVEGVPSRFSGSGSGTDFTLTISSLQPEDVATYYCQHHLGTPYTFGQGTKVEIKRTVAAPSVFIFPPSDEQLKSGTASVVCLLNNFYPREAKVQWKVDNALQSGNSQESVTEQDSKDSTYSLSSTLTLSKADYEKHKVYACEVTHQGLSSPVTKSFNRGEC
115 |  | Format A - BGA-3953 (bispecific antibody, human IgG1, kappa, Light chain by the description of Format A) heavy: QVQLVQSGAEVKKPGASVKVSCKASGYIFTSYYLHWVRQAPGQGLEWIGYINPQTGKTSYAQKFQGRVTMTRDTSTSTVYMELSSLRSEDTAVYYCAREYGNYNYPLDYWGQGTLVTVSSASTKGPSVFPLAPSSKSTSGGTAALGCLVKDYFPEPVTVSWNSGALTSGVHTFPAVLQSSGLYSLSSVVTVPSSSLGTQTYICNVNHKPSNTKVDKKVEPKSCDKTHTCPPCPAPPAAGPSVFLFPPKPKDTLMISRTPEVTCVVVDVSHEDPEVKFNWYVDGVEVHNAKTKPREEQYNSTYRVVSVLTVLHQDWLNGKEYKCKVSNKALAAPIEKTISKAKGQPREPQVYTLPPSREEMTKNQVSLTCLVKGFYPSDIAVEWESNGQPENNYKTTPPVLDSDGSFFLYSKLTVDKSRWQQGNVFSCSVMHEALHNHYTQKSLSLSPGKGGGGSEVQLLESGGGLVQPGGSLRLSCAASGFTVSAEDVGWVRQAPGKGLEWVSAILDSGGSTYYAESVKGRFTISRDNAKNTLYLQMSSLRAEDTAVYYCARIVYHAGGGVTFDTRGQGTQVTVSS light: DIQMTQSPSSLSASVGDRVTITCRASENQYGYLAWYQQKPGKVPKLLIYNYKNLVEGVPSRFSGSGSGTDFTLTISSLQPEDVATYYCQHHLGTPYTFGQGTKVEIKRTVAAPSVFIFPPSDEQLKSGTASVVCLLNNFYPREAKVQWKVDNALQSGNSQESVTEQDSKDSTYSLSSTLTLSKADYEKHKVYACEVTHQGLSSPVTKSFNRGEC
873 |  | Format A - BGA-9468 (bispecific antibody, human IgG1, kappa, Light chain by the description of Format A) heavy: QVQLVQSGAEVKKPGASVKVSCKASGYIFTSYYLHWVRQAPGQGLEWIGYINPQTGKTSYAQKFQGRVTMTRDTSTSTVYMELSSLRSEDTAVYYCAREYGNYNYPLDYWGQGTLVTVSSASTKGPSVFPLAPSSKSTSGGTAALGCLVKDYFPEPVTVSWNSGALTSGVHTFPAVLQSSGLYSLSSVVTVPSSSLGTQTYICNVNHKPSNTKVDKKVEPKSCDKTHTCPPCPAPPAAGPSVFLFPPKPKDTLMISRTPEVTCVVVDVSHEDPEVKFNWYVDGVEVHNAKTKPREEQYNSTYRVVSVLTVLHQDWLNGKEYKCKVSNKALAAPIEKTISKAKGQPREPQVYTLPPSREEMTKNQVSLTCLVKGFYPSDIAVEWESNGQPENNYKTTPPVLDSDGSFFLYSKLTVDKSRWQQGNVFSCSVMHEALHNHYTQKSLSLSPGKGGGGSEVQLLESGGGLVQPGGSLRLSCAASGFTVSAEDVGWVRQAPGKGLEWVSAILDSGGSTYYAESVKGRFTISRDNAKNTLYLQMSSLRAEDTAVYYCARVVYHSGGGVTFDLRGQGTQVTVSS light: DIQMTQSPSSLSASVGDRVTITCRASENQYGYLAWYQQKPGKVPKLLIYNYKNLVEGVPSRFSGSGSGTDFTLTISSLQPEDVATYYCQHHLGTPYTFGQGTKVEIKRTVAAPSVFIFPPSDEQLKSGTASVVCLLNNFYPREAKVQWKVDNALQSGNSQESVTEQDSKDSTYSLSSTLTLSKADYEKHKVYACEVTHQGLSSPVTKSFNRGEC
